According to paper PMC3567243 (Molecular Microbiology, 2012):
Like-named read-outs stand apart in the source and are kept apart here.

Assays:
[1] = system: CC1=CC(=O)c2ccccc2C1=O; experiment: purified protein
[2] = system: COC1=C(OC)C(=O)C(CC=C(C)C)=C(C)C1=O; experiment: purified protein; details: pH 8.0
[3] = system: COC1=C(OC)C(=O)C(C)=CC1=O; experiment: purified protein; details: pH 8.0
[4] = system: COC1=C(OC)C(=O)C(C/C=C(\C)CCC=C(C)C)=C(C)C1=O; experiment: purified protein; details: pH 8.0
[5] = system: CC1=C(C)C(=O)c2ccccc2C1=O; experiment: purified protein; details: pH 8.0
[6] = target: Ddn (Mycobacterium tuberculosis, UniProt P9WP15); experiment: F420H2 oxidation, absorbance at […] nm
[7] = co-substrate 100 μM F420H2, 200 mM Tris-HCl pH 8.0, 0.01% Triton X-100

Sequence of Ddn (P9WP15 whole entry): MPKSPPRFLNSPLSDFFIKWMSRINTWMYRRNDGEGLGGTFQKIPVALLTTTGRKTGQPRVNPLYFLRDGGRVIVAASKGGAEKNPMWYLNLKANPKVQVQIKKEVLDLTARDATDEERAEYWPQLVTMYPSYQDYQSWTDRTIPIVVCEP

(Mycobacterium tuberculosis H37Rv)
Km [1]: 2.09 ± 0.91 µM | kcat/Km [1]: 255000 M⁻¹ s⁻¹ | Km ([1]; pH 8.0): 3.44 ± 1.27 µM | kcat/Km ([1]; pH 8.0): 86000 M⁻¹ s⁻¹ | Km [2]: 10.12 ± 2.23 µM | kcat/Km [2]: 3500 M⁻¹ s⁻¹ | Km [3]: 12.35 ± 2.65 µM | kcat/Km [3]: 1670 M⁻¹ s⁻¹ | Km [4]: 3.14 ± 0.97 µM | kcat/Km [4]: 28800 M⁻¹ s⁻¹ | Km [5]: 2.21 ± 0.98 µM | kcat/Km [5]: 40500 M⁻¹ s⁻¹

O=[N+]([O-])c1cn2c(n1)OC[C@@H](OCc1ccc(OC(F)(F)F)cc1)C2 [PA-824]
Km [6]: 28.6 ± 3.55 µM

CC1=CC(=O)c2c(O)cccc2C1=O [Plumbagin]
Km [6, 7]: 2.17 ± 2.74 µM

O=C1C=CC(=O)c2ccccc21 [1,4-naphthoquinone]
Km [6, 7]: 2.23 ± 1.19 µM
